According to patent US20090142855, “Polynucleotides and Polypeptides of the IL-12 Family of Cytokines” (published 2009):

Columns and labels:
[1] = target: T1, IL-23 (p19/p40 heterodimer) (Homo sapiens, UniProt P29460;Q9NPF7 P29460:23-328,Q9NPF7:20-189); assay: FP; conditions: label: 5'-32P
[2] = target: T1, IL-23 (p19/p40 heterodimer); assay: filter; dot blot nitrocellulose; Dulbecco's PBS with Ca2+ and Mg2+, 0.1 mg/mL BSA, room temp 30 min; conditions: label: 5'-32P
Experimental: Aptamer binding affinity determination. Trace 5′-³²P-labeled aptamers were combined with protein (IL-23 or IL-12) at various concentrations and incubated at room temperature for 30 minutes in Dulbecco's PBS (PBS plus Ca²⁺, Mg²⁺) plus 0.1 mg/mL BSA. Each titration curve was tested in duplicate. The reactions were then added to a dot blot apparatus (Minifold-1 Dot Blot, Acrylic, Schleicher and Schuell, Keene, N.H.), assembled (from top to bottom) with Protran nitrocellulose (Schleicher and Schuell, Keene, N.H.), Hybond-P nylon (Amersham Biosciences, Piscataway, N.J.) and GB002 gel blot paper (Schleicher and Schuell, Keene, NH). Aptamers bound to protein are retained on the nitrocellulose filter, whereas the non-protein bound RNA is captured on the nylon filter. The extent of aptamer capture on each filter was quantitated using a Phosphoimager (Molecular Dynamics). Equilibrium dissociation constants (KD) were calculated using the equation: […]
FIGS. 3 and 4 show the comparison of the aptamer binding curves (in duplicate) to cynomolgus IL-23, cynomolgus IL-12, and human IL-23.

T1 sequence (P29460 23-328, chain 1 of 2): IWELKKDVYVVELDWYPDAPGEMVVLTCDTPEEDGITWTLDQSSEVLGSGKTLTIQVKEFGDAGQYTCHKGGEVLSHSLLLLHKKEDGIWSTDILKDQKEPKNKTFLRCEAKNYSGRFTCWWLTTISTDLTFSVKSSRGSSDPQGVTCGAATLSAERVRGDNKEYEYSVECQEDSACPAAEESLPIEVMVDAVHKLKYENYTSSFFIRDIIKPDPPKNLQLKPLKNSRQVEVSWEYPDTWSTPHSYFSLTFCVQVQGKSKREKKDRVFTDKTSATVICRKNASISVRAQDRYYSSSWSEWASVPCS
T1 sequence (Q9NPF7 20-189, chain 2 of 2): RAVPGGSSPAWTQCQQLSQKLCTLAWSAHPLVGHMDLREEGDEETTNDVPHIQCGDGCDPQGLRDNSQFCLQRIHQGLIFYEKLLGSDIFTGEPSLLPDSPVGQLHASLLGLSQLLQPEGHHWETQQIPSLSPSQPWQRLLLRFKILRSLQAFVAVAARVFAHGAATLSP

Row | Binder | Kd [1] [nM] | Kd [2] [nM]
1 | ACAGGCAAGUAAUUGGGGAGUGCGGGCGGGGUGU (mixed, 2'-OMe at all C and all U and at G16, G17, G24, G25, G30, G31; all other nucleotides 2'-deoxy (all A deoxy); PS after positions 17, 18, 19, 21; 3' inverted dT) [ARC1623] | 0.25 | –
2 | ACAGGCAAGUAAUUGGGGAGUGCGGGCGGGGUGU (mixed, 2'-OMe at all C and all U and at G16, G17, G24, G25, G30, G31; all other nucleotides 2'-deoxy (all A deoxy); PS after positions 2, 3, 4, 6, 7, 8, 10, 11, 14, 17, 18, 19, 21, 25, 27, 28, 32; 3' inverted dT) [ARC1626] | – | 0.15
